Read-outs that look alike come from different tables or passages of the source.
Tests used:
[1] = Comparative study between intravenous and intratracheal administration of Org 42675 (plasma concentration via anti-Xa activity, amidolytic S2222); assay type: in vivo, male Wistar rats; conditions: male, Wistar, rat; for AUC(0-inf) / AUC(0-t) / Cmax / bioavailability: 100 nmol/kg; for bioavailability: other: intratracheal, 100 nmol/kg intratracheal vs i.v. (100%), read-out: F (% bioavailabilty)
Procedure: The test was carried out in male Wistar rats of 300-400 gr. The rats were anaesthetised by inhalation of a mixture of O2/N2O/isoflurane, after which the right jugular vein was cannulated. Translumination of the neck enabled visibility of the vocal cords and an oral needle was inserted when the vocal cords were open after which 100 μl/300 gr body weight of a solution prepared from the pharmaceutical formulation of Example 1, diluted with an aqueous 0.9% sodium chloride solution, containing 300 nmol of Org 42675/ml was instilled at approximately 1 cm before the bifurcation of the trachea. The same solution and dose was also used to perform the i.v. study. After i.v. administration blood was sampled at 1, 6, 15, 30 and 60 minutes and after 2, 4, 7 and 24 hours. After intra-tracheal administration blood was sampled at 0.5-1-2-4-7 and 24 hours after administration. Blood was centrifuged and the plasma was siphoned off and stored at −20° C. until use. The concentration of Org 42675 was measured amidolytically with S2222 (Chromogenix, Chromogenics Ltd, Molndal, Sweden) by determination of the anti-Xa activity based on the method of Teien and Lie in the obtained plasma samples against a calibration curve which was made of the stock solution of 300 nmol/ml itself. (Teien A N, Lie M. Evaluation of an amidolytic heparin assay method increased sensitivity by adding purified antithrombin III. Thromb. Res. 1977, 10: 399-410). The concentration in the samples was expressed in nmol/ml and the kinetic parameters were calculated with the noncompartment model of WinNonlin (see Tables 1 and 2). After intratracheal administration the maximum concentration was already obtained at 0.5 hour after administration which was also the first time point of blood collection.

[2] = rabbit, in vivo; cited from earlier work
[3] = in vivo; cited from earlier work
[4] = inhaled or intranasal, 100 nmol/kg intratracheal, individual rats
[5] = inhaled or intranasal, 100 nmol/kg intratracheal, mean (n=3)
[6] = iv, 100 nmol/kg intravenous, individual rats
[7] = iv, 100 nmol/kg intravenous, mean (n=2)

Row | Molecule | Tmax [1, 4] [min] | AUC(0-inf) [1, 4] [µM·h] | AUC(0-t) [1, 4] [µM·h] | Cmax [1, 4] [nM] | AUC(0-inf) [1, 5] [µM·h] | AUC(0-t) [1, 5] [µM·h] | Cmax [1, 5] [nM] | AUC(0-inf) [1, 6] [µM·h] | AUC(0-t) [1, 6] [µM·h] | Cmax [1, 6] [nM] | AUC(0-inf) [1, 7] [µM·h] | AUC(0-t) [1, 7] [µM·h] | Cmax [1, 7] [nM] | bioavailability ([1]; individual rats) [%] | bioavailability ([1]; mean (n=3)) [%] | bioavailability [2] | pharmacokinetics [2] | Absolute bioavailability [3]
1 | COc1cc(C)c(S(=O)(=O)NC(CC(=O)NCCCC(=O)NCCOCCOCCOCCO[C@H]2[C@H](OC)[C@@H](OC)[C@@H](O[C@H]3[C@H](OC)[C@@H](OC)[C@H](O[C@H]4[C@H](OS(=O)(=O)O)[C@@H](OS(=O)(=O)O)[C@@H](O[C@H]5[C@H](OC)[C@@H](OC)[C@H](O[C@H]6[C@H](OC)[C@@H](OS(=O)(=O)O)[C@@H](OC)O[C@@H]6COS(=O)(=O)O)O[C@H]5C(=O)O)O[C@@H]4COS(=O)(=O)O)O[C@@H]3C(=O)O)O[C@@H]2COS(=O)(=O)O)C(=O)NC(Cc2ccc(C(=N)N)cc2)C(=O)N2CCCCC2)c(C)c1C (stereo partly drawn) [Org 42675] | 30 | 5.53 | 5.4 | 640 | 5.07 ± 0.24 | 4.91 | 770 | 8.46 | 8.35 | 3180 | 7.32 ± 1.03 | 7.32 | 2930 | 75.5 | 71 ± 3 |  |  | 
2 | heparin |  |  |  |  |  |  |  |  |  |  |  |  |  |  |  | low | poor | 35-60%

— patent US20090227528A1, “Pulmonary administration of an antithrombotic compound” (priority 2004, published 2009)
